{"source": "FireProtDB (doi:10.1002/pro.2375)", "parents": {"B1": {"name": "Amylosucrase, Q9ZEU2 (parent)", "chain": "MLTPTQQVGLILQYLKTRILDIYTPEQRAGIEKSEDWRQFSRRMDTHFPKLMNELDSVYGNNEALLPMLEMLLAQAWQSYSQRNSSLKDIDIARENNPDWILSNKQVGGVCYVDLFAGDLKGLKDKIPYFQELGLTYLHLMPLFKCPEGKSDGGYAVSSYRDVNPALGTIGDLREVIAALHEAGISAVVDFIFNHTSNEHEWAQRCAAGDPLFDNFYYIFPDRRMPDQYDRTLREIFPDQHPGGFSQLEDGRWVWTTFNSFQWDLNYSNPWVFRAMAGEMLFLANLGVDILRMDAVAFIWKQMGTSCENLPQAHALIRAFNAVMRIAAPAVFFKSEAIVHPDQVVQYIGQDECQIGYNPLQMALLWNTLATREVNLLHQALTYRHNLPEHTAWVNYVRSHDDIGWTFADEDAAYLGISGYDHRQFLNRFFVNRFDGSFARGVPFQYNPSTGDCRVSGTAAALVGLAQDDPHAVDRIKLLYSIALSTGGLPLIYLGDEVGTLNDDDWSQDSNKSDDSRWAHRPRYNEALYAQRNDPSTAAGQIYQGLRHMIAVRQSNPRFDGGRLVTFNTNNKHIIGYIRNNALLAFGNFSEYPQTVTAHTLQAMPFKAHDLIGGKTVSLNQDLTLQPYQVMWLEIA"}}, "data": [{"variants_of": "B1", "details": "Neisseria polysaccharea; pH 7; Thermal; DSF; Tris 50 mM; structure 1G5A; whole UniProt chain shown", "units": {"change of melting temperature, mutant - wild type (higher = more stable)": "°C"}, "values": [{"variant": "R517A", "change of melting temperature, mutant - wild type (higher = more stable)": 0}, {"variant": "D515A", "change of melting temperature, mutant - wild type (higher = more stable)": 0.8}, {"variant": "D515I", "change of melting temperature, mutant - wild type (higher = more stable)": 0.6}, {"variant": "R292V", "change of melting temperature, mutant - wild type (higher = more stable)": 1.8}, {"variant": "R292K", "change of melting temperature, mutant - wild type (higher = more stable)": 1.6}, {"variant": "R292H", "change of melting temperature, mutant - wild type (higher = more stable)": 0.4}, {"variant": "D152E", "change of melting temperature, mutant - wild type (higher = more stable)": -1.4}, {"variant": "D152A", "change of melting temperature, mutant - wild type (higher = more stable)": 0.2}, {"variant": "D152I", "change of melting temperature, mutant - wild type (higher = more stable)": -1.6}, {"variant": "H195D", "change of melting temperature, mutant - wild type (higher = more stable)": -3.4}, {"variant": "H195W", "change of melting temperature, mutant - wild type (higher = more stable)": -5.8}, {"variant": "H195A", "change of melting temperature, mutant - wild type (higher = more stable)": -1.6}, {"variant": "H195V", "change of melting temperature, mutant - wild type (higher = more stable)": -4}, {"variant": "H195M", "change of melting temperature, mutant - wild type (higher = more stable)": -0.2}, {"variant": "H195Y", "change of melting temperature, mutant - wild type (higher = more stable)": -3.2}, {"variant": "H195I", "change of melting temperature, mutant - wild type (higher = more stable)": -6.6}, {"variant": "H195T", "change of melting temperature, mutant - wild type (higher = more stable)": -4}, {"variant": "H195N", "change of melting temperature, mutant - wild type (higher = more stable)": -1.4}, {"variant": "H195K", "change of melting temperature, mutant - wild type (higher = more stable)": -0.4}, {"variant": "H195C", "change of melting temperature, mutant - wild type (higher = more stable)": -0.2}, {"variant": "H195G", "change of melting temperature, mutant - wild type (higher = more stable)": -2.8}, {"variant": "H195L", "change of melting temperature, mutant - wild type (higher = more stable)": -6.4}, {"variant": "H195Q", "change of melting temperature, mutant - wild type (higher = more stable)": -3}, {"variant": "H195R", "change of melting temperature, mutant - wild type (higher = more stable)": -5}, {"variant": "F258N", "change of melting temperature, mutant - wild type (higher = more stable)": -3.2}, {"variant": "F258Y", "change of melting temperature, mutant - wild type (higher = more stable)": -0.8}, {"variant": "Y155A", "change of melting temperature, mutant - wild type (higher = more stable)": -1}, {"variant": "Y155F", "change of melting temperature, mutant - wild type (higher = more stable)": -0.2}, {"variant": "Y155N", "change of melting temperature, mutant - wild type (higher = more stable)": -1}, {"variant": "H400P", "change of melting temperature, mutant - wild type (higher = more stable)": 2.2}, {"variant": "H400E", "change of melting temperature, mutant - wild type (higher = more stable)": 0.4}, {"variant": "H400Y", "change of melting temperature, mutant - wild type (higher = more stable)": 2}, {"variant": "H400M", "change of melting temperature, mutant - wild type (higher = more stable)": 0.4}, {"variant": "H400F", "change of melting temperature, mutant - wild type (higher = more stable)": -2.4}, {"variant": "H400L", "change of melting temperature, mutant - wild type (higher = more stable)": -0.4}, {"variant": "H400C", "change of melting temperature, mutant - wild type (higher = more stable)": 0.8}, {"variant": "H400Q", "change of melting temperature, mutant - wild type (higher = more stable)": -0.4}, {"variant": "H400K", "change of melting temperature, mutant - wild type (higher = more stable)": -1.6}, {"variant": "H400I", "change of melting temperature, mutant - wild type (higher = more stable)": -0.2}, {"variant": "H400N", "change of melting temperature, mutant - wild type (higher = more stable)": -0.2}, {"variant": "H400G", "change of melting temperature, mutant - wild type (higher = more stable)": 0.8}, {"variant": "H400S", "change of melting temperature, mutant - wild type (higher = more stable)": 0.2}, {"variant": "H400W", "change of melting temperature, mutant - wild type (higher = more stable)": 0.4}, {"variant": "H400V", "change of melting temperature, mutant - wild type (higher = more stable)": 0.2}, {"variant": "H400T", "change of melting temperature, mutant - wild type (higher = more stable)": 0.4}, {"variant": "R454A", "change of melting temperature, mutant - wild type (higher = more stable)": -0.2}, {"variant": "R454F", "change of melting temperature, mutant - wild type (higher = more stable)": 0.2}, {"variant": "R454E", "change of melting temperature, mutant - wild type (higher = more stable)": -2.2}]}]}
